Holding throughout (assay): flow cytometry, protein L-biotin then streptavidin-PE on LV-transduced human primary T cells
Test [1] deals with CAR19 construct 1712 (LTG1712): SP-CD19binder-TNFRSF16link-TNFRSF16tm-signaling.
Target sequence (chain, as listed by the source): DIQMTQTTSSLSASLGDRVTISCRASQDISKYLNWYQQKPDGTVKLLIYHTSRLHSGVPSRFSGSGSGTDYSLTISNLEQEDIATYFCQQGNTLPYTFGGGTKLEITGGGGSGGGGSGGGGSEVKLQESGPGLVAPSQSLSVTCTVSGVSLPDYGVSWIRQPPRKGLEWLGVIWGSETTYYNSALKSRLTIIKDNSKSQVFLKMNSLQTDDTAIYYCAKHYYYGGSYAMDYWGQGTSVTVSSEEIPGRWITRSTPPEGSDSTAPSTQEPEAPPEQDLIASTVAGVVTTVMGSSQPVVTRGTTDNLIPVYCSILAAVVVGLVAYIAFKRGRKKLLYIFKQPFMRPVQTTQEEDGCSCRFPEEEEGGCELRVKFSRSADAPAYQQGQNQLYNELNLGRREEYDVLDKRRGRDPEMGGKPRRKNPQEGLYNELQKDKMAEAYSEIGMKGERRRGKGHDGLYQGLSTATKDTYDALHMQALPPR
Test [2] addresses CAR19 construct 1494 (LTG1494): SP-CD19binder-CD8link-CD8tm-signaling.
Test [3] deals with CAR19 construct 1713 (LTG1713): SP-CD19binder-Truncated TNFRSF19link-TNFRSF19tm-signaling.
Target sequence (chain, as listed by the source): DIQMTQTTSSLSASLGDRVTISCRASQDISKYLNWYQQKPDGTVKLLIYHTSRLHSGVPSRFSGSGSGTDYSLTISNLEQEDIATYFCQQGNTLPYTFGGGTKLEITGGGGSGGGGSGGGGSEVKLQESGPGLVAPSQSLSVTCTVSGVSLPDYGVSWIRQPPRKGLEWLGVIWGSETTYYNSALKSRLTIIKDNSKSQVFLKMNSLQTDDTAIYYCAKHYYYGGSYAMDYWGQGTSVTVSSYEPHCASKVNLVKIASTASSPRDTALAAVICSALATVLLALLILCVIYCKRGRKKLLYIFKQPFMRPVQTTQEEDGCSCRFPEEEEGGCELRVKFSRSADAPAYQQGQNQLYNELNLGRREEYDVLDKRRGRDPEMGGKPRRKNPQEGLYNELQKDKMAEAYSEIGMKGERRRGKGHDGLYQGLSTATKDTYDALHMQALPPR

These results are taken from patent publication US20180305452A1.

protein L-biotin conjugate: the percentage CAR on T cell surface (cells stained) in test [1] came to 86.4%; in test [2], 90.4%; in test [3], 0.3%.
